Reference: US20250296959A1, “B7-H3 TARGETING PEPTIDES AND CONSTRUCTS THEREOF” (Mariana Oncology Inc., priority 2024, published 2025)
Read-outs that look alike come from different tables or passages of the source. Starred links: 1 amine or outer side, 2 acyl side, 3 side chain; linkers in the order of their positions; H or OH if unused. Positions of bridges follow the written chain, without caps; N, C: chain ends. Non-standard residues stand in square brackets, D forms with d. Residues, ends and D or L forms follow the SMILES beside them. Groups on a side chain read outwards from the residue. Primed or numbered codes have the meaning given here. *: point of attachment. (2S,3S)beta‑Me‑Phe = C[C@@H](c1ccccc1)[C@H](N[*:1])C(=O)[*:2]; (2S,3S)βMePhe = C[C@@H](c1ccccc1)[C@H](N[*:1])C(=O)[*:2]; DOTA = O=C(O)CN1CCN(CC(=O)O)CCN(CC(=O)*)CCN(CC(=O)O)CC1; PipAla = piperidinyl-alanine residue (as named); Trp(5-F) = N[C@@H](Cc1c[nH]c2ccc(F)cc12)C(=O)O; PEG4′ = 4x 3-(2-aminoethoxy)propanoic acid; Ala(4-THP) = N[C@@H](CC1CCOCC1)C(=O)O; Val(3-OH) = CC(C)(O)[C@H](N)C(=O)O; Tle = CC(C)(C)[C@H](N)C(=O)O; hLeu = CC(C)CC[C@H](N)C(=O)O

T1: 4lg-B7-H3 (Homo sapiens, UniProt Q5ZPR3, S143D)
T1 sequence (Q5ZPR3 29-456 S143D): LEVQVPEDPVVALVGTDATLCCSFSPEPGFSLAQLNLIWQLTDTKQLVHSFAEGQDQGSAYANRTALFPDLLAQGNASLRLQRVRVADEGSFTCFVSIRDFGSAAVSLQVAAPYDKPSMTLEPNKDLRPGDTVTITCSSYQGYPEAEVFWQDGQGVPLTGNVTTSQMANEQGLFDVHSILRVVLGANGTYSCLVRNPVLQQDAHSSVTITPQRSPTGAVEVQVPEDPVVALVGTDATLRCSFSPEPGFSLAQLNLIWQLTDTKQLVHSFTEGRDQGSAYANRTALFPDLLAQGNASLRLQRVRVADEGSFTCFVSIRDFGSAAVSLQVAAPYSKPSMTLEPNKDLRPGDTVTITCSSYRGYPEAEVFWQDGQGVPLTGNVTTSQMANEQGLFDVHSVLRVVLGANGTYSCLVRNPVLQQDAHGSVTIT

T2: human 4lg B7-H3 (Homo sapiens, UniProt Q5ZPR3)
T2 sequence (Q5ZPR3 29-534): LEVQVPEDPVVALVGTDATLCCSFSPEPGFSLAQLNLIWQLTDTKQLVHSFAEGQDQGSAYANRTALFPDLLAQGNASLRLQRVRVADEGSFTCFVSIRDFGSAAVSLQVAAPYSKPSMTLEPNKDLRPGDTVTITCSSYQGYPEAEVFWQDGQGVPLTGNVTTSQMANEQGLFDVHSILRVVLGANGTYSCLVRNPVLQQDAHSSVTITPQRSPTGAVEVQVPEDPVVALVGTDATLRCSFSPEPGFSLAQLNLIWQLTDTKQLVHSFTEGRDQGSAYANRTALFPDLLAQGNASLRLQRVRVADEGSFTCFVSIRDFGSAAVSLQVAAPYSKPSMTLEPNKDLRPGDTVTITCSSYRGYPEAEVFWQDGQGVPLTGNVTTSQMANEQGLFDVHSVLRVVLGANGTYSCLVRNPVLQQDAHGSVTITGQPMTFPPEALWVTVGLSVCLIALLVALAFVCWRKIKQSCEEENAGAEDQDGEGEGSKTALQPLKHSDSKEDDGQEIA


Tests used:
[1] = test system: Calu-6 cell line; assay: Cell associated (bound) fraction of [177Lu]Lu-labeled peptide in Calu-6 cells; format: cell-based, Human; conditions: 1 hour, 37° C.
Method in brief: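 Peptide conjugate was labelled with [177Lu]LuCl3 in ammonium acetate pH ~5 at 80 °C for 17-20 min, with purity checked by RP-HPLC. Calu-6 suspensions (5 million cells/mL in 1% PBSA) were incubated with 0.8 μCi for 1 h at 37 °C. Cell pellets were gamma-counted after two cold PBS/BSA washes, giving the bound fraction against the unbound supernatant plus washes.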

[2] = test system: Calu-6 cell line; assay: Net internalization of [177Lu]Lu-labeled peptide in Calu-6 cells; format: cell-based, Human; conditions: 1 hour, 37° C., glycine pH 2.5 acid wash
Method in brief: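 Peptide conjugate labeled with [177Lu]LuCl3 at pH ~5, 80 °C, 17–20 min, and purity checked by RP-HPLC. B7-H3-expressing human Calu-6 lung cancer cells at 5 million cells/mL in 1% PBSA. Internalized fraction: counts left after two 3 min 50 mM glycine pH 2.5 washes and NaOH lysis, gamma counted against bound fraction.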

[3] = target: T1, 4lg-B7-H3; assay: X-ray crystal structure of compound bound to 4lg-B7-H3
Description: The x-ray crystal structure of an exemplary compound of the disclosure bound to 4lg-B7-H3 was determined. Suitable constructs for B^7H3 expression had been previously established by PROTEROS. Expression of B^7H3 was performed according to previously established protocols. A purification protocol was established and homogeneous protein was produced in preparative amounts. The protein was purified comprising affinity and gel filtration chromatography steps. This procedure yielded homogenous protein with a purity greater 95% as judged from Coomassie stained SDS-PAGE. A 4lg-B7-H3 sequence from amino acid 29-456 was employed. The following sequence corresponds to amino acids 1-534 of 4lg-B7-H3:
The purified protein was used in crystallization trials employing both, a standard screen with approximately 1200 different conditions, as well as crystallization conditions identified using literature data. Conditions initially obtained have been optimized using standard strategies, systematically varying parameters critically influencing crystallization, such as temperature, protein concentration, drop ratio, and others. These conditions were also refined by systematically varying pH or precipitant concentrations.
A cryo-protocol was established using PROTEROS Standard Protocols. Crystals have been flash-frozen and measured at a temperature of 100 K. The X-ray diffraction data have been collected from complex crystals of 4lg-B7-H3 with the ligand of Cpd #200 at the SWISS LIGHT SOURCE (SLS, Villigen, Switzerland) using cryogenic conditions. The crystals belong to space group P 61 2 2. Data were processed using the programs autoPROC, XDS and autoPROC, AIMLESS. […]
Subsequent model building and refinement was performed according to standard protocols with COOT and the software package CCP4, respectively. For the calculation of the free R-factor, a measure to cross-validate the correctness of the final model, about 4.8% of measured reflections were excluded from the refinement procedure (Table 27). […]

[4] = target: T2, human 4lg B7-H3; assay: Affinity determination by surface plasmon resonance (SPR) to 4Ig B7-H3; conditions: 4Ig B7-H3
[5] = target: Biotinylated human 4Ig B7-H3 (human) (UniProt Q5ZPR3); assay: SPR 25C; A = KD<=1.0 nM
[6] = target: Biotinylated human 4Ig B7-H3 (human) (UniProt Q5ZPR3); assay: SPR 37C; A = KD<=1.0 nM
[7] = target: B7-H3 on Calu-6 cells (human) (UniProt Q5ZPR3); assay: 177Lu-labelled peptide on Calu-6 cells, % cell associated fraction; C = >50%
[8] = target: 2Ig B7-H3 (UniProt Q5ZPR3); assay: SPR, 37C

KD [5] [nM]	KD [6] [nM]	% cell associated fraction [7] [%]	Kd [8] [nM]	Molecule	other results
				CC(=O)N[C@@H](CCC(C)C)C(=O)N[C@@H](Cc1ccc(O)cc1)C(=O)N[C@H]1CSSC[C@@H](C(=O)N[C@@H](Cc2c[nH]c3ccc(F)cc23)C(=O)N[C@@H](Cc2ccccc2)C(=O)N[C@H](C(=O)N[C@H](CCCCNC(=O)CN2CCN(CC(=O)O)CCN(CC(=O)O)CCN(CC(=O)O)CC2)C(N)=O)[C@@H](C)O)NC(=O)[C@H](Cc2ccc(O)cc2)NC(=O)[C@H](C(C)C)NC(=O)[C@H](CC(=O)O)NC(=O)[C@H](CC2CCOCC2)NC(=O)[C@H](CCCCN)NC(=O)CNC(=O)[C@H](C(C)C)NC1=O [compound 200, Ac-hLeu-Y-C-V-G-K-ThpA-D-V-Y-C-5FW-F-Thr-dLys(DOTA)-CONH2] (Ac-[hLeu]YCVGK[Ala(4-THP)]DVYC[Trp(5-F)]FT[dK](DOTA)-NH2; disulfide 3-11)	% cell associated fraction [1]: C (%>50); % net internalization [2]: A (%≤25); Resolution [Å] ([3]; complex crystals of 4lg-B7-H3 with ligand, parenthesis = highest resolution bin): 2.98 (3.28-2.98) Å; specific hydrogen bonds to 4lg-B7-H3 ([3]; distance of less than 3.5 Å of donor and acceptor atoms): eleven; ligand binding site in 4lg-B7-H3 ([3]; extracellular domain residues 29-456): bound between the Ig-like C2-type 1 and Ig-like V-type 2 domains; Kd ([4]; read-out: SPR KD—25° C., 25° C. flow cell temperature): < 1 nM; Kd ([4]; read-out: SPR KD—37° C., 37° C. flow cell temperature): 1 to 10 nM
< 1	< 1	> 50		Ac-[hLeu]YC[Tle]GK[Ala(4-THP)]DVYC[Trp(5-F)]F[Val(3-OH)][dK]([PEG4′-DOTA])-OH (disulfide 3-11 (inferred)) [Cpd 310]	
< 1	< 1	> 50		Ac-[hLeu]YC[Tle]GK[Ala(4-THP)]DVYC[Trp(5-F)]F[Val(3-OH)][dK](DOTA)-OH (disulfide 3-11 (inferred)) [Cpd 303]	
	< 1	> 50	370	Ac-[hLeu]YC[Tle]G[PipAla]([PEG4′-DOTA])[Ala(4-THP)]DVYC[Trp(5-F)][(2S,3S)βMePhe][Val(3-OH)][dA]-OH (disulfide 3-11 (inferred)) [Cpd 494]	
	< 1		520	Ac-[hLeu]YC[Tle]G[PipAla]K([PEG4′-DPTA])DVYC[Trp(5-F)][(2S,3S)beta‑Me‑Phe][Val(3-OH)][dA]-OH (disulfide 3-11 (inferred)) [Cpd 523]	
